Assay [1] addresses T1, human CD39 (full length, on cells) (human, UniProt P49961 1-510).
T1 construct: Recombinant on CHOK1-hCD39 cells or natural on SK-MEL-28, SK-MEL-5 and MOLP-8 cells; the cell line is named under assay; also called hCD39; ENTPD1
T1 sequence: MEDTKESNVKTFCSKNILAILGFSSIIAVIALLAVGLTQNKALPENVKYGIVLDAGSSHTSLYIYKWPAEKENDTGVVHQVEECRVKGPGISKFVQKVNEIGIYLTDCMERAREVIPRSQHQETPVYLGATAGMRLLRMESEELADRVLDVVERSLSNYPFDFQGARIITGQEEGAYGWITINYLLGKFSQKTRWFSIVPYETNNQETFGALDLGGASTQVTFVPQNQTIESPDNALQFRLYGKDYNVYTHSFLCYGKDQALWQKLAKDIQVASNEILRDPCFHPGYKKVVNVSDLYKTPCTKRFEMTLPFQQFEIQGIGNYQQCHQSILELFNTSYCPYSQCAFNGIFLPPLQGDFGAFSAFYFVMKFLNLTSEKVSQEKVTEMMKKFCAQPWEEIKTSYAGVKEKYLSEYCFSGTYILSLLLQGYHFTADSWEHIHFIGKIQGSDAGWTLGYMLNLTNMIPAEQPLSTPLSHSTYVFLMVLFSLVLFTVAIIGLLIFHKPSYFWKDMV
Briefly: FACS, SK-MEL-28 cells. The procedure, abridged: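 SK-MEL-28 cells (natural human CD39) incubated with graded anti-CD39 antibody concentrations, 30 min at 4° C, washed, then stained with fluorescent anti-mouse or anti-human IgG secondary, 30 min at 4° C. Binding read by flow cytometry.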
On the technique in general: A flow cytometer gives signals particle by particle.

The target of assay [2] is T2, mouse CD39 (full length, on CHOK1-mCD39 cells) (mouse, UniProt P55772 1-510).
T2 construct: whole, on cells
T2 sequence (looked up): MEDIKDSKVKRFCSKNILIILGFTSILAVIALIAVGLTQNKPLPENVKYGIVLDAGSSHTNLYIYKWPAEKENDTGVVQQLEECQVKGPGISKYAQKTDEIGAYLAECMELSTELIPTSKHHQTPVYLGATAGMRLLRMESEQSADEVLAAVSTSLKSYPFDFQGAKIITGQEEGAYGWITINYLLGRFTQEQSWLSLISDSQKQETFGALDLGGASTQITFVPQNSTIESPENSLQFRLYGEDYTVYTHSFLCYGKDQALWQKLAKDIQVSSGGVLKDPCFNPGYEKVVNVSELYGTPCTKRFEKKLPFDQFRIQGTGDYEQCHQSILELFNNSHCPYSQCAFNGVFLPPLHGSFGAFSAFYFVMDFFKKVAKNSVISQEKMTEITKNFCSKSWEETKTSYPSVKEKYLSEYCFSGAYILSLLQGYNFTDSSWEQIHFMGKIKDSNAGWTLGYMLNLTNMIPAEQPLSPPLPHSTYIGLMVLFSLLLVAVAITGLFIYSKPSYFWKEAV
The experiment in a line: FACS, CHOK1-mCD39 cells. The procedure, abridged: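 Cells incubated 60 min at 4 °C with anti-CD39 antibodies in 4-fold serial dilution from 30 μg/ml in PBS/1% FBS/0.05% Tween-20; CHOK1-blank cells as negative control. Binding read by flow cytometry as mean fluorescence intensity; apparent affinity fitted from full binding curves.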

Assay [3] has as its target T1, human CD39 (full length, on cells). Briefly: FACS, SK-MEL-5 cells. Here is the method: Similarly, human CD39 expressing cells SK-MEL-5, SK-MEL-28 or MOLP-8, were incubated with a gradient concentration of anti-CD39 antibodies for 30 minutes at 4° C. Cells were washed 3 times using FACS buffer and next incubated with fluorescence labelled secondary antibody (goat-anti-mouse IgG or goat anti-human IgG) for 30 minutes at 4° C. Cells were washed 3 times and then re-suspended in FACS buffer and analyzed by flow cytometry analysis on BD Celesta. Data plotted and analyzed using GraphPad Prism 8.02.
Binding affinity of the humanized antibodies hu23.H5L5 and hu14.H1L1 were tested on different cells by FACS following the similar method as described in Example 3.2.
Reference antibodies T895 and 1394 were tested in parallel as control antibodies. As shown in FIG. 12 and summarized in Table 23, both antibodies hu23.H5L5 and hu14.H1L1 bound to human and cynomolgus CD39 expressing cells in a dose-dependent manner and with similar affinity by EC₅₀ at a sub-nanomolar or nanomolar level. Neither of them recognized mouse CD39 in the FACS study. Maximum signal (mean fluorescence intensity, MFI) differed between cells for each antibody may result from their different expression level.

As a reminder, the EC50 is the concentration that produces a half-maximal response. Lower therefore signals a more potent agent.

B1: mAb14 (antibody, V domains shown)
VH: EVKLEESGGGLVQPGGSMKLSCVASGFTFSKYWMNWVRQSPEKGLEWVAEIRLKSNKYGTHYAESVKGRFTISRDDSKNNVYLQMNNLRPEDTGIYYCTTQLDLYWFFDVWGAGTTVTVSS
VL: DIVMTQSPAILSVTPGDRVSLSCRASQSISDYLHWYQQKSHESPRLLIKYASQSISGIPSRFSGSGSGSNFTLSINSVEPEDVGVYFCQNGHSLPLTFGAGTKLELR
notes: mouse hybridoma antibody
In assay [1], B1 had an EC50 of 28 nM. Moreover, the binding result in assay [2] is “no binding (tested: 30 µg/ml highest concentration)”.

B2: hu23.H5L5 (antibody, V domains shown)
VH: QVQLVQSGAEVKKPGASVKVSCKASGYNLKDTFLHWVRQAPGQGLEWMGRIDPANGNIKYDPKFQGRVTITADTSANTAYMELISLRSEDTAVYYCANSPYYYGSGYRIFDVWGQGTTVTVSS
VL: QIVLTQSPATLSLSPGERATLSCSAFSSVNYMHWYQQKPGQAPRLLIYTTSNLASGIPTRFSGSGSGTSYTLTISSLEPEDFAVYYCQQRSTYPFTFGQGTKLEIK
notes: humanized c23
B2 showed an EC50 in assay [3] of 0.69 nM.

B3: Antibody 9-8B (antibody, V domains shown)
VH: QIQLVQSGPELKKPGETVKISCKASGYTFTHYGMNWVKQAPGKGLKWMGWINTYTGELTYADDFKGRFAFSLETSASTAYLQINNLKNEDTATYFCARRAYYRYDYVMDYWGQGTSVTVSS
VL: DIVMTQSQKFMSTSVGDRVSVTCKASHNVGTNVAWYQQKPGQSPKALIYSASYRYSGVPGRFTGSGSGTDFTLTISNVQSEDLAEYFCHQYNNYPYTFGGGTKLEIK
On to B3, for which the concentration for a half-maximal effect (EC50) in assay [1] worked out at 0.8 nM. Further, in assay [2], the binding result is on record as “no binding (tested: 30 µg/ml highest concentration)”.

B4: Antibody T895 (antibody, V domains shown)
VH: EVQLQQSGPELVKPGASVKMSCKASGYTFTDYNMHWVKQSHGRTLEWIGYIVPLNGGSTFNQKFKGRATLTVNTSSRTAYMELRSLTSEDSAAYYCARGGTRFAYWGQGTLVTVSA
VL: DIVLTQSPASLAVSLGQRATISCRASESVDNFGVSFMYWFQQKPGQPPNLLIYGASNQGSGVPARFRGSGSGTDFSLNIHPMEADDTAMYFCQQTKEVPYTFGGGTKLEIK
notes: also called 31895
In assay [3], B4 displayed a concentration giving a half-maximal response (EC50) of 0.21 nM.

(Values after patent publication US20210388105A1 (ELPISCIENCE SUZHOU BIOPHARMA, published 2021).)
